The results in this text go back to patent US20220144956A1 (published 2022).

Common to all, as to experiment: Octet
In test [1] the target is αCD5 (Clone 4) x αTGFßRII.
The target in test [2] is αCD5 (Clone 7) x αTGFßRII.
Test [3] addresses αCD5 (Clone 11) x αTGFßRII.
Test [4] addresses αCD5 (Clone 8) x αTGFßRII.
For test [5], the target named is αCD5 (Clone 10) x αTGFßRII.
For test [6], the target named is αCD5 (Clone 6) x αTGFßRII.
Test [7] concerns the target αCD5 (Clone 9) x αTGFßRII.
Test [8] concerns the target αCD5 (Clone 3) x αTGFßRII.
The target of test [9] is αCD5 (Clone 1) x αTGFßRII.
The target of test [10] is αCD5 (Clone 5) x αTGFßRII.

B1: Human (receptor)
chain: RLSWYDPDFQARLTRSNSKCQGQLEVYLKDGWHMVCSQSWGRSSKQWEDPSQASKVCQRLNCGVPLSLGPFLVTYTPQSSIICYGQLGSFSNCSHSRNDMCHSLGLTCLEPQKTTPPTTRPPPTTTPEPTAPPRLQLVAQSGGQHCAGVVEFYSGSLGGTISYEAQDKTQDLENFLCNNLQCGSFLKHLPETEAGRAQDPGEPREHQPLPIQWKIQNSSCTSLEHCFRKIKPQKSGRVLALLCSGFQPKVQSRLVGGSSICEGTVEVRQGAQWAALCDSSSARSSLRWEEVCREQQCGSVNSYRVLDAGDPTSRGLFCPHQKLSQCHELWERNSYCKKVFVTCQDPNP
A word on the Kd: it is the free concentration of one partner at which half of the binding sites on the other are occupied at equilibrium, for simple one-to-one binding. Read a low Kd as tighter binding. With B1, the Kd in test [1] was 7.03 nM; in test [2], 2.05 nM; in [3] it was 18.6 nM; in test [4] it was 8.72 nM; in test [5], 1.24 nM; in test [6], 11.1 nM. The Kd amounted to 2.99 nM in test [7], 1.53 nM in [8], 7.91 nM in [9] and 12.9 nM in test [10].
